From paper PMC7104183 (Cell Reports, 2018) come the findings set out here.

The assay addresses ectodomain of human DPP4 (residues 39-766) (human, UniProt P27487 39-766). Description: SPR. On the technique in general: Surface plasmon resonance follows binding to a sensor surface in real time, without labels.

B1: MERS-CoV RBD (residues 367-588) (domain or fragment)
chain: EAKPSGSVVEQAEGVECDFSPLLSGTPPQVYNFKRLVFTNCNYNLTKLLSLFSVNDFTCSQISPAAIASNCYSSLILDYFSYPLSMKSDLSVSSAGPISQFNYKQSFSNPTCLILATVPHNLTTITKPLKYSYINKCSRFLSDDRTEVPQLVNANQYSPCVSIVPSTVWEDGDYYRKQLSPLEGGGWLVASGSTVAMTEQLQMGFGITVQYGTDTNSVCPKL
For B1, the binding result is recorded as “binds”.
